Source: doi:10.1101/2023.03.28.534543

Columns and labels:
Experiment in all cases: SEC
[1] = molecular target: SepF from Archaeoglobus fulgidus (Archaeoglobus fulgidus)
[2] = molecular target: CdpB2 from Archaeoglobus fulgidus (Archaeoglobus fulgidus)
[3] = molecular target: CdpB1 from Archaeoglobus fulgidus (Archaeoglobus fulgidus)

“SepF from Archaeoglobus fulgidus (natural protein)” was tested, and the stoichiometry N [1] was 2.
“CdpB2 from Archaeoglobus fulgidus (natural protein)” was tested, and the stoichiometry N [2] was 2.
“CdpB1 from Archaeoglobus fulgidus (natural protein)” gave a stoichiometry N [3] of 2.
